T1: HvRPA3-NTD (OB-fold) (Haloferax volcanii DS2 (wild-type), UniProt D4GZS1 1-163)
T1 sequence: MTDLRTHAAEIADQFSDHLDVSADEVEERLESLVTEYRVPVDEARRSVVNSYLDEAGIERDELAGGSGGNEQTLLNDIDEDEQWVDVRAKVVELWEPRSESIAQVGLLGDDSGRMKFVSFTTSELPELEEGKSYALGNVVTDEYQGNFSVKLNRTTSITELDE

T2: HvRPA3 full length (Haloferax volcanii DS2 (wild-type), UniProt D4GZS1 1-311)
T2 sequence: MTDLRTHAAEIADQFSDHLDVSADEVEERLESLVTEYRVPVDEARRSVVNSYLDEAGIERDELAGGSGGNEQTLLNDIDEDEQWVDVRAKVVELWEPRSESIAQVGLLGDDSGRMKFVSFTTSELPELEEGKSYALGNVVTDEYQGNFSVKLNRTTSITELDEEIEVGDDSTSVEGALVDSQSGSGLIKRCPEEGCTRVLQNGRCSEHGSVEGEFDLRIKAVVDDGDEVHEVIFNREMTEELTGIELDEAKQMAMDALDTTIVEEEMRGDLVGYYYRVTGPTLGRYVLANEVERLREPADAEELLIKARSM

T3: HvRPA3 CTD-1 (Haloferax volcanii DS2 (wild-type), UniProt D4GZS1 164-311)
T3 sequence: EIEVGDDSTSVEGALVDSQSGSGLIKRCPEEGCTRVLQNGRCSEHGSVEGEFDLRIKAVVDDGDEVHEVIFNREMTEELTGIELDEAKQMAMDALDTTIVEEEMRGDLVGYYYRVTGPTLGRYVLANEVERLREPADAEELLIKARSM

T4: HvRPA3 CTD-2 (Haloferax volcanii DS2 (wild-type), UniProt D4GZS1 164-311)
T4 sequence: T3 sequence

B1: HvRPA3 C-terminal domain (residues 164-311), second size exclusion peak (CTD-2) (domain or fragment, Haloferax volcanii, UniProt D4GZS1 164-311, looked up)
chain: T3 sequence
notes: Replication protein A3 (RPA3) of Haloferax volcanii, C-terminal domain residues 164-311, holds the zinc finger motif; Same construct as m3; the peak of lower apparent mass in the last purification step; Holds zinc (0.53 mol/mol); also called HvRPA3-CTD-2; source: E. coli B834 (DE3), purified (ammonium sulphate fractionation, Talon resin, Superdex 200; second of two peaks); not shown: 6xHis, …
B2: HvRPA3 C-terminal domain (residues 164-311), first size exclusion peak (CTD-1) (domain or fragment, Haloferax volcanii, UniProt D4GZS1 164-311, looked up)
chain: T3 sequence
notes: Replication protein A3 (RPA3) of Haloferax volcanii, C-terminal domain residues 164-311, holds the zinc finger motif; Same construct as m4; the peak of higher apparent mass in the last purification step, concentrated apart; also called HvRPA3-CTD-1; source: E. coli B834 (DE3), purified (ammonium sulphate fractionation, Talon resin, Superdex 200; first of two peaks); not shown: 6xHis, N-terminal, …
B3: HvRPA3 N-terminal domain (residues 1-163) (domain or fragment, Haloferax volcanii, UniProt D4GZS1 1-163, looked up)
chain: T1 sequence
notes: Replication protein A3 (RPA3) of Haloferax volcanii, N-terminal domain residues 1-163, holds the OB-fold; Tagged construct has a predicted MW of 18.9 x 10^3; also called NTD; HvRPA3-NTD; source: E. coli B834 (DE3), purified (ammonium sulphate fractionation, Talon resin, Superdex 200); not shown: 6xHis, N-terminal, kept
B4: Cy5-18mer ssDNA (FA) (ssDNA)
DNA: GCGTGTGTGGTGGTGTGC
B5: Replication protein A3 from Haloferax volcanii, full length (natural protein, UniProt D4GZS1 1-311, looked up)
chain: T2 sequence
notes: Replication protein A3 (RPA3) of Haloferax volcanii, amplified from genomic DNA of wild-type DS2; full length, residues 1-311 (the CTD construct ends at 311); Oligomeric state depends on the salt concentration; Tagged protein has a predicted MW of 35.4 x 10^3; also called HvRPA3; RPA3; source: E. coli B834 (DE3), purified (ammonium sulphate fractionation, Talon resin, Superdex 200); not shown: …
B6: 18mer ssDNA (SEC) (ssDNA)
DNA: GCGTGTGTGGTGGTGTGC

Assays:
[1] = biological target: the molecule itself; assay: SEC; last step of the purification, 26/60 Superdex 200, 50 mM Hepes pH 7.0, 1.0 M NaCl
[2] = biological target: the molecule itself; assay: SEC; analytical, 10/300 Superdex 200, 50 mM HEPES pH 7.0, 0.2 M KCl; 250 ug protein incubated one hour in the buffer; calibrated with gel filtration standards
[3] = biological target: the molecule itself; assay: SEC; analytical, 10/300 Superdex 200, 50 mM HEPES pH 7.0, 1.0 M KCl; 250 ug protein incubated one hour in the buffer; calibrated with gel filtration standards
[4] = biological target: the molecule itself; assay: SEC; analytical, 10/300 Superdex 200, 50 mM HEPES pH 7.0, 1.0 M KCl, with equimolar (monomer equivalent) 18mer ssDNA
HvRPA3-NTD (OB-fold) = biological target: T1, HvRPA3-NTD (OB-fold); assay: fluorescence anisotropy; 1 M KCl; two-site fit, high-affinity site; dimer concentration; FA: 50 mM HEPES pH 7.0, 10% glycerol, 0.03% BSA, 20 nM Cy5-oligo, 0.2, 1 or 3 M KCl, room temperature 10 min; SEC: 50 mM HEPES pH 7.0, 0.2, 1 or 3 M KCl; EMSA:; details: protein: recombinant; tags: N-terminal 6xHis; label: 5' Cy5; single strand
HvRPA3 full length [5] = biological target: T2, HvRPA3 full length; assay: fluorescence anisotropy; 1 M KCl; Hill 0.9 ± 0.1; monomer equivalents; FA: 50 mM HEPES pH 7.0, 10% glycerol, 0.03% BSA, 20 nM Cy5-oligo, 0.2, 1 or 3 M KCl, room temperature 10 min; SEC: 50 mM HEPES pH 7.0, 0.2, 1 or 3 M KCl; EMSA:; details: protein: recombinant; tags: N-terminal 6xHis; label: 5' Cy5; single strand
HvRPA3 full length [6] = biological target: T2, HvRPA3 full length; assay: fluorescence anisotropy; 3 M KCl; Hill 1.2 ± 0.1; FA: 50 mM HEPES pH 7.0, 10% glycerol, 0.03% BSA, 20 nM Cy5-oligo, 0.2, 1 or 3 M KCl, room temperature 10 min; SEC: 50 mM HEPES pH 7.0, 0.2, 1 or 3 M KCl; EMSA:; details: protein: recombinant; tags: N-terminal 6xHis; label: 5' Cy5; single strand
HvRPA3 CTD-1 [7] = biological target: T3, HvRPA3 CTD-1; assay: fluorescence anisotropy; any KCl condition; data not shown; FA: 50 mM HEPES pH 7.0, 10% glycerol, 0.03% BSA, 20 nM Cy5-oligo, 0.2, 1 or 3 M KCl, room temperature 10 min; SEC: 50 mM HEPES pH 7.0, 0.2, 1 or 3 M KCl; EMSA:; details: protein: recombinant; tags: N-terminal 6xHis; chain copies: 4; label: 5' Cy5; single strand
HvRPA3 CTD-2 [8] = biological target: T4, HvRPA3 CTD-2; assay: as above; details: protein: recombinant; tags: N-terminal 6xHis; label: 5' Cy5; single strand
HvRPA3 CTD-1 [9] = biological target: T3, HvRPA3 CTD-1; assay: analytical SEC; any KCl condition (0.2, 1, 3 M); data not shown; FA: 50 mM HEPES pH 7.0, 10% glycerol, 0.03% BSA, 20 nM Cy5-oligo, 0.2, 1 or 3 M KCl, room temperature 10 min; SEC: 50 mM HEPES pH 7.0, 0.2, 1 or 3 M KCl; EMSA:; details: protein: recombinant; tags: N-terminal 6xHis; chain copies: 4; single strand
HvRPA3 CTD-2 [10] = biological target: T4, HvRPA3 CTD-2; assay: as above; details: protein: recombinant; tags: N-terminal 6xHis; single strand

Binder | stoichiometry N [1] | stoichiometry N [2] | stoichiometry N [3] | also measured
B1 | 2 | 3 |  | 
B2 | 4 | 7 | 5 | 
B3 |  | 3 |  | stoichiometry N [4]: 2
B4 |  |  |  | Kd (HvRPA3-NTD (OB-fold)): 4.1 ± 7.9 nM; Kd (HvRPA3 full length [5]): 53.9 ± 18.3 nM; Kd (HvRPA3 full length [6]): 24.1 ± 2.9 nM; binding result (HvRPA3 CTD-1 [7]): no binding; binding result (HvRPA3 CTD-2 [8]): no binding
B5 |  | 4 | 2 | 
B6 |  |  |  | binding result (HvRPA3 CTD-1 [9]): no binding; binding result (HvRPA3 CTD-2 [10]): no binding

Source: publication PMC3438722, “DNA Binding in High Salt: Analysing the Salt Dependence of Replication Protein A3 from the Halophile Haloferax volcanii” (Archaea, 2012)
